assay: yeast display, Sf9 membrane polyspecificity reagent, FACS + sequencing; frameworks hold sequencing errors
Summary of the method: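 A nanobody's polyreactivity label depends on the gate it was sorted from. Yeast display cells were stained with 10% biotinylated, detergent-solubilized Sf9 membrane reagent for 1 hour at 4 °C, enriched on streptavidin microbeads and sorted by FACS. The low and high (top ~1%) gates were set on anti-HA fluorescence for expression and streptavidin fluorescence for reagent binding.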

Sequence | polyreactivity (PSR sort gate)
QDQLVESGGELVQAGGSLRLSCASSGRTFSANGMGWYRQAPAKERELVAAITRSGGITYYADSVKGRFTISRVNAKNTVYLQMNSLKPEDTAVYYCAASVYSLSRRSWMDYWGQGTQVTVSS | low polyreactivity
QDQLVESGGGFVQEGGSLRLSCDPSGRIFYGYVMGRYRQAHGKERELVAAISRRGGSTYYADSVKGRFTISRDNAKNTVYLQMNSMKPVVTAVDYCDAVLSFALVQYYGANRDDYWGQGTQVSVSS | high polyreactivity
QDQLVESGGGIVQEGGILRLSCAASGRIFVGYAMGWYRQAPGKERELVAAIRRYGTGTYYADSVKGRFTISRDNAKYTVYLKLNSLKTEDTAVYYCDAPELALYFPYDYWGQGTQVTVSS | low polyreactivity
QDQLVESGGGLDQAGGSLRLSCAASGRIFARYAMGWYRLAPGKERELVAALSRGGSTKYADSVKGRFTISRDNAKNTVYLQLHSLQQEDTAVYYCARQLWGSQYGAYYAGDYWGQVTQVTVSS | low polyreactivity
QDQLVESGGGLDQAGGSLRLSCAASGSTFQLYAMGWYRQAPGKERELVAAISGIGDSTYYADSVKGRFTISRDNAKNTVYLQMNSLKPEDTAVYYCDREFSDGLSGKFDYWGQGTQVTVSS | low polyreactivity
QDQLVESGGGLDQAGGSLRLSCAASGSTFSPYAMGWYRQAPGKERELVAGITSSGGDSYYADSVKGRFTISRDNAKNTVYLQMKSLKPEDTAVYYCAADWWVLGQLCFDYWGQGTQVNVSS | low polyreactivity
QDQLVESGGGLFQAGGSLRLSCAASGGIFGFYAMGWSRKAPGKERELVAAISWGGGSTYYADSVKGRFTISRDNAKNTVYLQMNSLKPEDTAFYYCAADPALTIEYGYWGQVTQVTVSS | low polyreactivity
QDQLVESGGGLFQAGGSLRLSCGASGFIFRWNAMGWSRQAPGKEREMVAAITRGGSTYYADSVKGRFSISRDNAKNTVYLQMNSLKPEDTAVYFCAAGYVYRGASGGYWGQGTQVTVSS | high polyreactivity
QDQLVESGGGLLQAGGSLRLSCAASGRTFNSYAMGWYRQAPGKERVLVAAISSSGGSTYYADSVKGRFTISRDNAKNTVYLEMNSLKPEDTAVYYCAAGLGSTSALLYGYWGQGTLVTVSS | high polyreactivity
QDQLVESGGGLVHAGGSLLLSCAACRRLFSQYVMGWYRQAPGKERELVAAISSGGGRTYYADSVKGRFTISRDYAKNTVYLQLNSLKPEDTAVYYCATLRPSAYPQYDSWGQGTQVTVSS | high polyreactivity
QDQLVESGGGLVHAGGSLRLSCAASGNNFSSYVMGWYRQATGKERELVAAISSRGGSTYYADSVKGRFTISRDNSKNTVYLQMNCLKPEDTAVYYCAARYLSCYDWGQGTQVSVSS | high polyreactivity
QDQLVESGGGLVQAGASLRLSCAASGSIICLYAMGWYRQAPGKERELVARITRSGGRTYYADSVKGRFTISRDNAKNTVYLQTNSLKPEDTAVYYCNAYGPNIYSSRYDYWGQGTQVSVSS | low polyreactivity
QDQLVESGGGLVQAGGRLRLSCAASGFTFHKYAMGWSRPAPGKDRELVAAITSSGGSTYYADSVKGRFTISRDYAKNTVYLQMTSLKPEDTAVYYCNARGGGRKSYDYWGQGTQVTVSS | high polyreactivity
QDQLVESGGGLVQAGGRLRLSCAASGLIFENYAMGWYRQSPGKERDLVAAITTSGGSTYYADSVKGRFTISRDNAKNTVYLQMNSLKPEDTAVYDCAAVGVRSRYYGYDYWGQGTLVTVSS | high polyreactivity
QDQLVESGGGLVQAGGRLRLSCAASGRTFYWNAMGWYRQAPGKERELVAAINGGGSTYYADSVKGRFTISRDNAMNTVYLQINSLKQEDSAVYYCNAESYEFHRAWGDYDYWGHGTQVTVSS | low polyreactivity
QDQLVESGGGLVQAGGRLRLSCAASGSIFCGNAMGWYRQAPGKERDLVAAITYRSGRTYYADSVKGRFTISRDNAKNTVYFQMNSLKPEDTAVYDCAAEFGGASRYTYNYWGQGTQVTVSS | low polyreactivity
QDQLVESGGGLVQAGGRLRLSCAASGSTFWWYDMGWYRKAHGKDRELVAAINWSGGSTYYADSVKGRFTISRDNAKNTVYLQMNSLKPEDTAVYYCAKVGRETEYDYWGQGTQVTVSS | high polyreactivity
QDQLVESGGGLVQAGGSHRLSCAASGRNFNYNAMGWYRQAPGKERELVAAISGSGGRTYYADSVKGRFTISRDNAKNTVYLQMNSLKPEDTAVYYCAAAGYDSNGRYWGQGTLVTVSS | high polyreactivity
QDQLVESGGGLVQAGGSHRLSCAASGSIFYRNAMGWFRQAPGKERELVAAISARGGRTNYADSVKGRFTISRDNAKNTVYLQMTSLKPEDTAVYYCNTADSWYHRSQAYDYWGQGTQVTVSS | high polyreactivity
QDQLVESGGGLVQAGGSHRLSSAASGSILGAYAMGWYRQPPVKERELVAAISRNGGSTYYADSVKGRFTISRDNAKNTVYLQMNRLKPEDTAVYYCAAYYYDNEYDYWGQGTQVTVSS | high polyreactivity
QDQLVESGGGLVQAGGSLRFSCAPSGFTFTRNPLGCYRQAPGQEREFVARISSRGGSTYYADSVKGRYTISRDIAKNSVYLQMNSLTPEDTAVNYCARDPVGTNSARYNYWGQGTQVTVSS | high polyreactivity
QDQLVESGGGLVQAGGSLRFSCASSGRIFRSYGMGWYRQAPGKERELVARIRNRGGSTYAHSVKGRFTISRDNAKNSVYLQMNSLKPEDTAVYYCAAGAYRHSVFSYDYWGQGTQVTVSS | high polyreactivity

Sequence | polyreactivity (PSR sort gate)
QDQLVESGGGLVQAGGSLRLICAASGITFFGYVMGWYRQAPGKERELVAAINSRGGNTYYADSVKGRFTSSRDNAKNTVYLQMNSLKPEDTAVYYCAASNGYQAVTYDYWGQGTQVTVSS | high polyreactivity
QDQLVESGGGLVQAGGSLRLRCAASGSILWYYAMGWYRQAPGKERELVASISYSGGSTYYADSVKGRFTISRDNAKNTVYLQMNSLKPEDTAVYYCNADTITYQGYDYGYWGQGTQVTVSS | low polyreactivity
QDQLVESGGGLVQAGGSLRLSCAASAFIFSSNAMGWYRQAPGKEREFVAAISFRGGTTYYADSVKGRFTISRDNAKNTVYLQMNSLKPEDTAVYYCNAVRWRSGRWWWYDYWGQGTQVTVSS | low polyreactivity
QDQLVESGGGLVQAGGSLRLSCAASALIFSLNAMGWYRQAPGTERELVAAISSDDSTYYADSVKGRFTISRDNAKNTVYLQMNSLKPEDTAVYYCAAVQLVPGYVDSNDYYWGQGTQVTVSS | low polyreactivity
QDQLVESGGGLVQAGGSLRLSCAASGFIFENYTLGWYRLAPGKERELVAAITSSGGSTYYADSVKGRFTISRDNAKNTVYLPLNSLNPDVTAVYYCNKRWFRDYDYWGQGTQVTVSS | high polyreactivity
QDQLVESGGGLVQAGGSLRLSCAASGFIFGRYAMGWYRQAPGKERELVATISRCGGSTYYADSVKGRFTISRDNAKKTVYLQMNSLKPEDTAVYYCAATYYQLFGTILHGYWGQGTQVTVSS | low polyreactivity
QDQLVESGGGLVQAGGSLRLSCAASGFIFLNYTMGWYRQAPGKERELVAAISNGSDRTYYADSVKGRFTISRDKAKNTVYLQMNSLTPEDTAVYYCAKDRDFSSPPTESGFDYWGQGTQVTVSS | low polyreactivity
QDQLVESGGGLVQAGGSLRLSCAASGFIFSSYAIGWYRQAPGKERELVAAITSGGSTNYADSVKGRFTLSRDNAKNTVYLQMNSLKPEDTAVYYCATVPGGSWFFHWWSTGGDDEYWGQGTQVTVSS | low polyreactivity
QDQLVESGGGLVQAGGSLRLSCAASGFIFVVYAMGWYTQAPGKERELVAAITYSGGSTYYADSVKGRFTISRDNAKNTVDLQMNSLKPEDTAVYYCAAPEHDREFDYWGQGTQVTVSS | low polyreactivity
QDQLVESGGGLVQAGGSLRLSCAASGFTFPVYAMGWYRQAPGKEWELVAAITRGGSTNYADSVKGRFTISRDNAKNTVYLQMNSLKPEDTAVYYCNADYAVAYHPDLGDYWGQGTQVTVSS | low polyreactivity
QDQLVESGGGLVQAGGSLRLSCAASGFTFRYYAMGWYRQAPGKEREFVAAITQSGGSTYYADSVKGRFTISRDNAKNTVYLQMNSLKPEDTAVYYCNTARVKYRWYNYWGQGTQVTVSS | high polyreactivity
QDQLVESGGGLVQAGGSLRLSCAASGFTFTRNAMGWYRQAPGKERELVAAISRGGSTNYADSVKGRFTISRDNAKNTVYLQMNSLKPEDTAVYYCAKVRTRGTPGVDYYYWGQGTQVTVSS | high polyreactivity
QDQLVESGGGLVQAGGSLRLSCAASGFTIDPYAMGWYRPAPGKERELVAGISWSGGSTYYADSVKGRFTISRDNAKNTVYLQMNSLKPEVTAVYYCARDYSWLTRGSDYDYWGQGTQVTVSS | low polyreactivity
QDQLVESGGGLVQAGGSLRLSCAASGFTIERYAMGWYRQAPGKERELVAVISTSGGSTYYADSVKGRFTISRDNGKNTVYLLMNSLKPEDTAVYYCAAPSVSQYSSKKYDYWGQGTQVTVSS | low polyreactivity
QDQLVESGGGLVQAGGSLRLSCAASGGIFPPNVMGWYRQAPGKERELVAAISRSGGSTYYADSVKGRFTFSRDNAMNTVYLQMNSLKPEDTAVYYCAAANTQRGFRYDYWGQGTQVTVSS | high polyreactivity
QDQLVESGGGLVQAGGSLRLSCAASGGTFGPNAMGWYRQSPGKERELVAAISASGGITYYADSVKGRFTISRDNAKNTVYLQMNSLKPEDTAVYYCAAAITWIYSQAAFKIVQYDYWGQGTQVTVSS | low polyreactivity
QDQLVESGGGLVQAGGSLRLSCAASGGTFWAYAMGWYRQAPGKERENVAAIRRSGRTYYADSVKGRITISRDNAKNTVYLQMNRLKPEDTAVDYCAKYGPTPGTLRDDYWGQGTQVTVSS | high polyreactivity
QDQLVESGGGLVQAGGSLRLSCAASGIIFHFNDMGWYRQAPGKERELVAAITSGGSTNYADSVKGRFTISRDNAKNTLYLQMNSLKPEDTAVYYCAARRGLRLFAYRHGYWGQGTQVTVSS | low polyreactivity
QDQLVESGGGLVQAGGSLRLSCAASGIIVTYYAMGWYRQAPGKERELVAAISESGGITYYADSVKGRFTISRDNAKNTVYLQMISLKPEVTGVYYCNAEYWGYAWPYDYWGQGTQVTVSS | high polyreactivity
QDQLVESGGGLVQAGGSLRLSCAASGLIFPAYTMGWSRQAQGKERELVAAISRSGGSTYYADSVKGRFTISRDNAKNTVYLQMNSLKPEDTAVYYCAAYYSGGYDYWGLGTQVTVSS | high polyreactivity
QDQLVESGGGLVQAGGSLRLSCAASGLIVGDYAMGWYRQAPGKERELVAAITGSVTRTYYADSVKGRFTISRDNAKNTVYLQMNSLKPEDTAVYYCATRVHYIGFYDYDYWGQGTQVTVSS | low polyreactivity

From the nanobody polyreactivity screen of Harvey et al. (2022)
